Measured values from publication doi:10.1101/192500 (bioRxiv, 2018).

B1: OmpC (wild type, in the purified OmpC-MlaA-His complex) (natural protein, E. coli)
chain: AEVYNKDGNKLDLYGKVDGLHYFSDNKDVDGDQTYMRLGFKGETQVTDQLTGYGQWEYQIQGNSAENENNSWTRVAFAGLKFQDVGSFDYGRNYGVVYDVTSWTDVLPEFGGDTYGSDNFMQQRGNGFATYRNTDFFGLVDGLNFAVQYQGKNGNPSGEGFTSGVTNNGRDALRQNGDGVGGSITYDYEGFGIGGAISSSKRTDAQNTAAYIGNGDRAETYTGGLKYDANNIYLAAQYTQTYNATRVGSLGWANKAQNFEAVAQYQFDFGLRPSLAYLQSKGKNLGRGYDDEDILKYVDVGATYYFNKNMSTYVDYKINLLDDNQFTRDAGINTDNIVALGLVYQF

Key:
[1] = biological target: MlaA-His (from dmlaA-His plasmids, in purified OmpC-MlaA-His complexes) (E. coli) (UniProt P76506); assay: SEC-MALS
SEC-MALS = biological target: the molecule itself; assay: SEC-MALS
[2] = biological target: the molecule itself; assay: temperature titration with SDS-PAGE
[3] = biological target: B1; assay: SEC

Sequence of MlaA-His (from dmlaA-His plasmids, in purified OmpC-MlaA-His complexes) (E. coli) (P76506 18-251, one chain of several): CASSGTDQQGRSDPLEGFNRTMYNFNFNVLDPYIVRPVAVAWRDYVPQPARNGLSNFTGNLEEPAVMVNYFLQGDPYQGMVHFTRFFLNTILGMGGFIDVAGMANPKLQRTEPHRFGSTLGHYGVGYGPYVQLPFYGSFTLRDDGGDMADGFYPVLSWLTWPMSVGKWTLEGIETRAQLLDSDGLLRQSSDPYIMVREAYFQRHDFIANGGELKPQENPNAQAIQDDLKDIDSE

Binder	binding result [2]	further results
B1	–	stoichiometry N (MlaA per OmpC trimer) [1]: 1; stoichiometry N (SEC-MALS): 3
OmpC_(R92L) (natural protein, E. coli, UniProt P06996 22-367, looked up) AEVYNKDGNKLDLYGKVDGLHYFSDNKDVDGDQTYMRLGFKGETQVTDQLTGYGQWEYQIQGNSAENENNSWTRVAFAGLKFQDVGSFDYGLNYGVVYDVTSWTDVLPEFGGDTYGSDNFMQQRGNGFATYRNTDFFGLVDGLNFAVQYQGKNGNPSGEGFTSGVTNNGRDALRQNGDGVGGSITYDYEGFGIGGAISSSKRTDAQNTAAYIGNGDRAETYTGGLKYDANNIYLAAQYTQTYNATRVGSLGWANKAQNFEAVAQYQFDFGLRPSLAYLQSKGKNLGRGYDDEDILKYVDVGATYYFNKNMSTYVDYKINLLDDNQFTRDAGINTDNIVALGLVYQF	binds	–
OmpCG19W/R92L (natural protein, E. coli, UniProt P06996 22-367, looked up) AEVYNKDGNKLDLYGKVDWLHYFSDNKDVDGDQTYMRLGFKGETQVTDQLTGYGQWEYQIQGNSAENENNSWTRVAFAGLKFQDVGSFDYGLNYGVVYDVTSWTDVLPEFGGDTYGSDNFMQQRGNGFATYRNTDFFGLVDGLNFAVQYQGKNGNPSGEGFTSGVTNNGRDALRQNGDGVGGSITYDYEGFGIGGAISSSKRTDAQNTAAYIGNGDRAETYTGGLKYDANNIYLAAQYTQTYNATRVGSLGWANKAQNFEAVAQYQFDFGLRPSLAYLQSKGKNLGRGYDDEDILKYVDVGATYYFNKNMSTYVDYKINLLDDNQFTRDAGINTDNIVALGLVYQF	binds	–
OmpC_(G19W) (natural protein, E. coli, UniProt P06996 22-367, looked up) AEVYNKDGNKLDLYGKVDWLHYFSDNKDVDGDQTYMRLGFKGETQVTDQLTGYGQWEYQIQGNSAENENNSWTRVAFAGLKFQDVGSFDYGRNYGVVYDVTSWTDVLPEFGGDTYGSDNFMQQRGNGFATYRNTDFFGLVDGLNFAVQYQGKNGNPSGEGFTSGVTNNGRDALRQNGDGVGGSITYDYEGFGIGGAISSSKRTDAQNTAAYIGNGDRAETYTGGLKYDANNIYLAAQYTQTYNATRVGSLGWANKAQNFEAVAQYQFDFGLRPSLAYLQSKGKNLGRGYDDEDILKYVDVGATYYFNKNMSTYVDYKINLLDDNQFTRDAGINTDNIVALGLVYQF	binds	–
OmpC_(R92A) (natural protein, E. coli, UniProt P06996 22-367, looked up) AEVYNKDGNKLDLYGKVDGLHYFSDNKDVDGDQTYMRLGFKGETQVTDQLTGYGQWEYQIQGNSAENENNSWTRVAFAGLKFQDVGSFDYGANYGVVYDVTSWTDVLPEFGGDTYGSDNFMQQRGNGFATYRNTDFFGLVDGLNFAVQYQGKNGNPSGEGFTSGVTNNGRDALRQNGDGVGGSITYDYEGFGIGGAISSSKRTDAQNTAAYIGNGDRAETYTGGLKYDANNIYLAAQYTQTYNATRVGSLGWANKAQNFEAVAQYQFDFGLRPSLAYLQSKGKNLGRGYDDEDILKYVDVGATYYFNKNMSTYVDYKINLLDDNQFTRDAGINTDNIVALGLVYQF	binds	–
MlaA_(D61-K124) peptide (domain or fragment, E. coli, UniProt P76506 61-124, looked up) DYVPQPARNGLSNFTGNLEEPAVMVNYFLQGDPYQGMVHFTRFFLNTILGMGGFIDVAGMANPK	–	binding result [3]: binds
